T1: Gal-PGC1-α (mouse PGC1-α 136-340) (mouse, UniProt O70343 136-340)
T1 construct: mouse PGC1-α, amino acids 136 to 340, in the vector pM (Clontech); holds ID1 LKKLL (residues 142-146); also called PGC1-α wt; Gal4-PGC1-α; source: COS-7 cells, transfected (mammalian two-hybrid fusion)
T1 sequence (looked up): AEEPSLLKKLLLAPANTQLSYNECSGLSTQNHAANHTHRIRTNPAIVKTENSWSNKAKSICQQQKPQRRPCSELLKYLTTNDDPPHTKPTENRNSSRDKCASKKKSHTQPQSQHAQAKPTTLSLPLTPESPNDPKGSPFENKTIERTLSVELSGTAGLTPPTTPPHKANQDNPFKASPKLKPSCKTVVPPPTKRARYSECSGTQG

T2: Gal-NCoR (ID1 + ID2 + ID3, mouse NCoR from 1629 to the C terminus) (mouse, UniProt Q60974 1629-2453)
T2 construct: mouse NCoR from 1629 to the C terminus (ID1 + ID2 + ID3), in the vector pM (Clontech); Plasmid provided by A. Le Maire (CBS, CNRS); also called NCoR wt; source: HEK293T cells, transfected (mammalian two-hybrid fusion)
T2 sequence (looked up): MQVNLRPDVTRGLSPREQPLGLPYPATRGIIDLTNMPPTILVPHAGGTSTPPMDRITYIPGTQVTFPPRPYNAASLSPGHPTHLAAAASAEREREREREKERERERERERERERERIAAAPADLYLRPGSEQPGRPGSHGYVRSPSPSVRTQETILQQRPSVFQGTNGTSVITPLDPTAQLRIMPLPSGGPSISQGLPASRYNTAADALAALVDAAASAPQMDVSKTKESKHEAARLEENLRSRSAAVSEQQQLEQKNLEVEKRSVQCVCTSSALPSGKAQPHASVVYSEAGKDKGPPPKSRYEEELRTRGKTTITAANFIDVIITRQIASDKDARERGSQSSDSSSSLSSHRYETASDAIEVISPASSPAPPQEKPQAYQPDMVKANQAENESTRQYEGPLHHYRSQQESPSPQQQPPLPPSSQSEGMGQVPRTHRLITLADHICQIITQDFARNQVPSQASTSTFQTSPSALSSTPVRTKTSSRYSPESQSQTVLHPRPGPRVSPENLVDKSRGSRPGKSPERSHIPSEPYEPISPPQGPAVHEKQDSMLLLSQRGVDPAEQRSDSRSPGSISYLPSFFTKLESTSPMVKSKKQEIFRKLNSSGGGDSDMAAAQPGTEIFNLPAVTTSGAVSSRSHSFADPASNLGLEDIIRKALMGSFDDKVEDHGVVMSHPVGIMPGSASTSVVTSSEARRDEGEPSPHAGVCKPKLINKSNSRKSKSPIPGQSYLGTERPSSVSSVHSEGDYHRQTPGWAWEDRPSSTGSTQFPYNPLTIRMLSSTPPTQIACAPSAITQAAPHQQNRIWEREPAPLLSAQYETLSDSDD

T3: Gal-TIF2 (three interaction domains, human TIF2 624-869) (human, UniProt Q15596 624-869)
T3 construct: also called TIF2 wt; source: COS-7 cells, transfected (mammalian two-hybrid fusion)
T3 sequence (looked up): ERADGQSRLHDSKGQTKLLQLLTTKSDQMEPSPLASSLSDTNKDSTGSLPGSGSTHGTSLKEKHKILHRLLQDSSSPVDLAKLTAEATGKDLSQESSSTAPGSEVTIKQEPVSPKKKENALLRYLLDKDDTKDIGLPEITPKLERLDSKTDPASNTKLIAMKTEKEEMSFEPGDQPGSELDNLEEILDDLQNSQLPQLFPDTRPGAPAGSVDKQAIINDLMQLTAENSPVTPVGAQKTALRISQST

B1: VP16-PPARγ (LBD region of PPARγ fused to the VP16 transactivation domain) (domain or fragment, UniProt P37231 238-503, looked up)
chain: DLRALAKHLYDSYIKSFPLTKAKARAILTGKTTDKSPFVIYDMNSLMMGEDKIKFKHITPLQEQSKEVAIRIFQGCQFRSVEAVQEITEYAKSIPGFVNLDLNDQVTLLKYGVHEIIYTMLASLMNKDGVLISEGQGFMTREFLKSLRKPFGDFMEPKFEFAVKFNALELDDSDLAIFIAVIILSGDRPGLLNVKPIEDIQDNLLQALELQLKLNHPESSQLFAKLLQKMTDLRQIVTEHVQLLQVIKKTETDMSLHPLLQEIYKD
notes: plasmid provided by A. Le Maire (CBS, CNRS); also called PPARγ wt; source: COS-7 or HEK293T cells, transfected (mammalian two-hybrid fusion)
B2: GST-tagged TIF2 (aa563-aa757) (domain or fragment, UniProt Q15596 563-757, looked up)
chain: QNSPVNMNPPPLSKMGSLDSKDCFGLYGEPSEGTTGQAESSCHPGEQKETNDPNLPPAVSSERADGQSRLHDSKGQTKLLQLLTTKSDQMEPSPLASSLSDTNKDSTGSLPGSGSTHGTSLKEKHKILHRLLQDSSSPVDLAKLTAEATGKDLSQESSSTAPGSEVTIKQEPVSPKKKENALLRYLLDKDDTKDI
modifications: FITC (fluorescein isothiocyanate) label in the fluorescence anisotropy assay; unlabelled in the pull-down
notes: TIF2 aa563-aa757; source: E. coli BL21 (DE3)
B3: His tagged PGC1-α (aa138-aa341) (domain or fragment, UniProt O70343 138-341, looked up)
chain: EPSLLKKLLLAPANTQLSYNECSGLSTQNHAANHTHRIRTNPAIVKTENSWSNKAKSICQQQKPQRRPCSELLKYLTTNDDPPHTKPTENRNSSRDKCASKKKSHTQPQSQHAQAKPTTLSLPLTPESPNDPKGSPFENKTIERTLSVELSGTAGLTPPTTPPHKANQDNPFKASPKLKPSCKTVVPPPTKRARYSECSGTQGS
modifications: FITC (fluorescein isothiocyanate) label in the fluorescence anisotropy assay; unlabelled in the pull-down
notes: PGC1-α aa138-aa341; source: E. coli BL21 (DE3)
B4: PPARγ LBD (aa207-aa477), purified (domain or fragment, UniProt P37231-2 207-477, looked up)
chain: ESADLRALAKHLYDSYIKSFPLTKAKARAILTGKTTDKSPFVIYDMNSLMMGEDKIKFKHITPLQEQSKEVAIRIFQGCQFRSVEAVQEITEYAKSIPGFVNLDLNDQVTLLKYGVHEIIYTMLASLMNKDGVLISEGQGFMTREFLKSLRKPFGDFMEPKFEFAVKFNALELDDSDLAIFIAVIILSGDRPGLLNVKPIEDIQDNLLQALELQLKLNHPESSQLFAKLLQKMTDLRQIVTEHVQLLQVIKKTETDMSLHPLLQEIYKDLY
notes: also called PPARγ wt; PPARγ wild-type

Assays:
[1] = biological target: VP16-PPARγ (LBD region of PPARγ fused to the VP16 transactivation domain) (UniProt P37231); experiment: mammalian two-hybrid assay; conditions: for response: read off a plot; for other: Dissociation ratio / other: Fold activation: Rosiglitazone against no treatment
[2] = biological target: Gal-SMRT (ID1 + ID2, human SMRT from 982 to the C terminus) (human); experiment: two-hybrid; mammalian two-hybrid in Hek293T cells (corepressors): Gal4 DBD-corepressor + VP16-PPARγ LBD + pGRE-LUC + Renilla control; with or without 1 μM Rosiglitazone for 24 h; interaction rate = luminescence divided by that of the corepressor without PPARγ
Gal-SMRT (ID1 + ID2, human SMRT from 982 to the C terminus) (human), sequence (Q9Y618 whole entry, the tested form may be a part): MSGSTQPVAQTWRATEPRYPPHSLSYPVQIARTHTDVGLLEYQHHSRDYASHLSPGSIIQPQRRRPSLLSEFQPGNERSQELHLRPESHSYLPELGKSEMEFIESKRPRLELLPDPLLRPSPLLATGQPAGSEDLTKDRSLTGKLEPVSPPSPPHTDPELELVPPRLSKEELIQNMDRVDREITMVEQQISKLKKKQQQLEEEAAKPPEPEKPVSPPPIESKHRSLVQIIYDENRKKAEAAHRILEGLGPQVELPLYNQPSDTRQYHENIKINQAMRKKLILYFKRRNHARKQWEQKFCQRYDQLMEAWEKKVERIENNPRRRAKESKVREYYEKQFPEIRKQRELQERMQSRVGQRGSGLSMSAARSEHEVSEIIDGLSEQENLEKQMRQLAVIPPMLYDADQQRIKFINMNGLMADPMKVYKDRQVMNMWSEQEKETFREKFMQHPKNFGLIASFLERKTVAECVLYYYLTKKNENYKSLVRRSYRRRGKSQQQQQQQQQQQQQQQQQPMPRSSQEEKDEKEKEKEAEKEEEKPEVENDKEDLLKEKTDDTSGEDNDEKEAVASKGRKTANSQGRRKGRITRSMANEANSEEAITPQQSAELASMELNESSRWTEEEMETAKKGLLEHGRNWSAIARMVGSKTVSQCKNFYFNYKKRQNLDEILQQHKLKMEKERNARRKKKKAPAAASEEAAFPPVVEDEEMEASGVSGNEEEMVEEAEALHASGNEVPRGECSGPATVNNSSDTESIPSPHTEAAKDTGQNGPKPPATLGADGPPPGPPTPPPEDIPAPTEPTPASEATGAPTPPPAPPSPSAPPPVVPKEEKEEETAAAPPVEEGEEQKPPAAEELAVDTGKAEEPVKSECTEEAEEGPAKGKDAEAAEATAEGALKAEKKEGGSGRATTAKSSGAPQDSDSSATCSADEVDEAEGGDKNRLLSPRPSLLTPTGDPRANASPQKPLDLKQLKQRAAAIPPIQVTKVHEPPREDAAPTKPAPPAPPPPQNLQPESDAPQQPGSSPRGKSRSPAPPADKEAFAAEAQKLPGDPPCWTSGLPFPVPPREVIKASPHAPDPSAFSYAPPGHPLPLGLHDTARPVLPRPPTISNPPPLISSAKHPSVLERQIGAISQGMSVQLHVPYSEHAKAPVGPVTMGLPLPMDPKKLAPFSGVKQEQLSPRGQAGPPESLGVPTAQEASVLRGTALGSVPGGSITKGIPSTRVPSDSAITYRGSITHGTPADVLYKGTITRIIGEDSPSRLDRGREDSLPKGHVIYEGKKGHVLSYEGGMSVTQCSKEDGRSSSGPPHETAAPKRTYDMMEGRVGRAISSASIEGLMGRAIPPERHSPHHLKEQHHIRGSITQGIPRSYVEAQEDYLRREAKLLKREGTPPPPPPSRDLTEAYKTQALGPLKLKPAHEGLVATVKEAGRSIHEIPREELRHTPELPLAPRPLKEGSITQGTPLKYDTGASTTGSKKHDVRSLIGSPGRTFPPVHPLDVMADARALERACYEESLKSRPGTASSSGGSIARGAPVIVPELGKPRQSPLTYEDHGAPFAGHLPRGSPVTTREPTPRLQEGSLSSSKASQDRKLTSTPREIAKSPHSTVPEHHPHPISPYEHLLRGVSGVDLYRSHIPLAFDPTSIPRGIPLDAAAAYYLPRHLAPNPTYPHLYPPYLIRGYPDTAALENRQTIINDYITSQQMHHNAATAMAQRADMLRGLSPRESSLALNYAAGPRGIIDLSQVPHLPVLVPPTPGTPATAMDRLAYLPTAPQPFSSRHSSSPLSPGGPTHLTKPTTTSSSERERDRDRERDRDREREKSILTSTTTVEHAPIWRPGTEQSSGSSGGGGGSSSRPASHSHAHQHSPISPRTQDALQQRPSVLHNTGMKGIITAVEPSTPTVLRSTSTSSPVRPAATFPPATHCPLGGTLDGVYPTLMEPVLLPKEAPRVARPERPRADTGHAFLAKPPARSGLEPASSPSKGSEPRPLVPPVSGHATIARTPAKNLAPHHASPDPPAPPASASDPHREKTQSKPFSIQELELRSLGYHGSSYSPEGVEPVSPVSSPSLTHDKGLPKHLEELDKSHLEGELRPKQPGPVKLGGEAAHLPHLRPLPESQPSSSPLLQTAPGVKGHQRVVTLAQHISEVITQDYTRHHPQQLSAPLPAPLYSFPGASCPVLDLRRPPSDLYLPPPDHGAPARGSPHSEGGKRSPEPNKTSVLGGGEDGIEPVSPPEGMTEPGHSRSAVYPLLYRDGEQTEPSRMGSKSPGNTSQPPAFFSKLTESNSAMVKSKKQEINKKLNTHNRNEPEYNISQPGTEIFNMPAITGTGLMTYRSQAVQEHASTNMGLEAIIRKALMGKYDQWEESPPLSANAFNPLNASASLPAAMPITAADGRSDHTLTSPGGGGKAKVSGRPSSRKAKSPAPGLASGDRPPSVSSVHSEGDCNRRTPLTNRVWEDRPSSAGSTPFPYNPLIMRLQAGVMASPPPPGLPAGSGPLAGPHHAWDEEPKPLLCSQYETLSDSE

[3] = biological target: T1, Gal-PGC1-α (mouse PGC1-α 136-340); experiment: two-hybrid; as a1 (COS-7 cells, coactivators) with co-transfected pCDNA-CDK5 (CDK5 and P35); conditions: partners not purified
[4] = biological target: Gal-SMRT ID2m (human); experiment: two-hybrid; mammalian two-hybrid in Hek293T cells (corepressors): Gal4 DBD-corepressor + VP16-PPARγ LBD + pGRE-LUC + Renilla control; with or without 1 μM Rosiglitazone for 24 h; interaction rate = luminescence divided by that of the corepressor without PPARγ
[5] = biological target: T2, Gal-NCoR (ID1 + ID2 + ID3, mouse NCoR …); experiment: as above; conditions: partners not purified
[6] = biological target: T2, Gal-NCoR (ID1 + ID2 + ID3, mouse NCoR …); experiment: two-hybrid; as a2 (Hek293T cells, corepressors) with co-transfected pCDNA-CDK5 (CDK5 and P35); conditions: partners not purified
[7] = biological target: T1, Gal-PGC1-α (mouse PGC1-α 136-340); experiment: two-hybrid; mammalian two-hybrid in COS-7 cells (coactivators): Gal4 DBD-coactivator + VP16-PPARγ LBD + pGRE-LUC + Renilla control; with or without 1 μM Rosiglitazone for 24 h; interaction rate = luminescence divided by that of the empty Gal4 vector; conditions: partners not purified
[8] = biological target: T4, Gal-TRAP220 (ID1 + ID2, human TRAP220 404-654) (human, UniProt Q15648 404-654); experiment: as above; conditions: partners not purified
T4 construct: human TRAP220, amino acids 404 to 654 (ID1 + ID2), in the vector pM (Clontech); source: COS-7 cells, transfected (mammalian two-hybrid fusion)
T4 sequence (Q15648 404-654): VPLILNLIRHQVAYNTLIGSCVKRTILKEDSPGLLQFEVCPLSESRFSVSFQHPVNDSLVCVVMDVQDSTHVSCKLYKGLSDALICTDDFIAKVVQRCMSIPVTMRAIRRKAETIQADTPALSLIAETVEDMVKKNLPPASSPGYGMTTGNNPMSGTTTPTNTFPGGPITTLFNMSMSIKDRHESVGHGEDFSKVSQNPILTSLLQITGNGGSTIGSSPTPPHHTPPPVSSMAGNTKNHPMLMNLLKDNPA

[9] = biological target: T3, Gal-TIF2 (three interaction domains, …); experiment: as above; conditions: partners not purified
[10] = biological target: B4; experiment: pull-down; coactivators: extract of His tagged PGC1-α on TALON resin or of GST-tagged TIF2 on Glutathione Sepharose, washed; then purified tag-free PPARγ or S273A, pre-incubated 20 min with rosiglitazone, 2 h at 4°C; eluate blotted with anti-PPARγ; conditions: both partners purified
[11] = biological target: B4; experiment: fluorescence polarisation; fluorescence anisotropy: PPARγ wt, S273A or S273D (200 μM to 6 nM) titrated into FITC-labelled affinity purified coactivator, in the elution buffer of the coactivator, with Rosiglitazone (3× molar excess); Kd from a Hill model; conditions: both partners purified
[12] = biological target: T5, GST-tagged SMRT (aa2041-aa2359) (UniProt Q9Y618 2041-2359, FITC (fluorescein isothiocyanate) label in the fluorescence anisotropy assay; unlabelled in the pull-down); experiment: fluorescence polarisation; fluorescence anisotropy: PPARγ wt, S273A or S273D (200 μM to 6 nM) titrated into FITC-labelled affinity purified corepressor, in the elution buffer of the corepressor; Kd from a Hill model; conditions: both partners purified
T5 construct: SMRT aa2041-aa2359; source: modified E. coli BL21(DE3) strain
T5 sequence (Q9Y618 2041-2359): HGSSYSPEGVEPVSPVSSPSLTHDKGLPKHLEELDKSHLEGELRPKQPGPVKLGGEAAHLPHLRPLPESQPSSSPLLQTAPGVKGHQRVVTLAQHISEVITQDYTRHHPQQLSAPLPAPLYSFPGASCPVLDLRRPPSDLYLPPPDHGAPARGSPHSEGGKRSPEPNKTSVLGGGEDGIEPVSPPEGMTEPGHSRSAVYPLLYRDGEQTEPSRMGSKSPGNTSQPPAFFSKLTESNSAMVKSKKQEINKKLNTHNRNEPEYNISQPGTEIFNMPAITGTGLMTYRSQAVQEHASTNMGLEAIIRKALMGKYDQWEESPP

“Gal-NCoR (ID1 + ID2 + ID3, mouse NCoR from 1629 to the C terminus) (from UniProt Q60974) ID3 IDVII changed to IDVAA” showed a response ([1]; No treatment, parent: est. 3.6) of 2.2, an other: Dissociation ratio [1] of 39% and a response ([1]; Rosiglitazone, parent: est. 1.2) of 1.3.

Molecule “Gal-SMRT (ID1 + ID2, human SMRT from 982 to the C terminus) V2097A; I2098A” has a response ([1]; No treatment, parent: est. 2.3) of 2.4 and an other: Dissociation ratio [1] of 58%.

In the case of “Gal-TIF2 (three interaction domains, human TIF2 624-869) (from UniProt Q15596) ID2 LHRLL changed to LHRAA”, the response ([1]; No treatment, parent: est. 1.0) is reported as 1.3, the other: Fold activation [1] is reported as 0.3 and the response ([1]; Rosiglitazone, parent: est. 1.4) is reported as 1.7.

“Gal-TIF2 (three interaction domains, human TIF2 624-869) (from UniProt Q15596) ID3 LRYLL changed to LRYAA” gave a response ([1]; No treatment, parent: est. 0.95) of 0.45, an other: Fold activation [1] of 0.5 and a response ([1]; Rosiglitazone, parent: est. 1.3) of 0.75.

“VP16-PPARγ (LBD region of PPARγ fused to the VP16 transactivation domain) (from UniProt P37231 238-503) (domain or fragment)” gave a dissociation rate in the presence of the ligand (Rosiglitazone) [2] of 65%.

With B1 the “interaction rate in the two-hybrid assay (fold), with CDK5” value [3] was 2 fold, the fold reduction of the interaction against SMRT wt [4] was 6 fold and the “interaction rate in the two-hybrid assay (fold), in absence of CDK5” value (“interaction rate … (fold), in absence of CDK5” below) [5] was 4 fold. The “interaction rate in the two-hybrid assay (fold), with CDK5” value [6] was 2 fold, the “interaction rate in the two-hybrid assay (fold)” value [7] was 7 fold and the “interaction rate … (fold), in absence of CDK5” value [7] was 5 fold. The “interaction rate in the two-hybrid assay (fold)” value [8] was 4 fold and the “interaction rate … (fold), in absence of CDK5” value [9] was 1.5 fold.

B2: binds [10].

For B3, the Kd [11] was 55.8 ± 2.9 µM.

B4 showed a Kd [12] of 4.06 ± 1.01 µM.
